A short description of this data set: protease stability score; higher = more stable; yeast display proteolysis, trypsin and chymotrypsin.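 Also: relative to predicted unfolded state with 0 unfolded-like and 1 meaning tenfold more protease.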
For “DEDEELLRRRADLFLKAYITGDENLLKRLADPDVLFDVNGRVFHGREHFITWLHRQLREFKNMRIHIRDIKHEVQGNFLHSEVDVTININGKEHWFILILIASKVDGKWIVEQIEIRFE”, the protease stability score came to 1.48. The result for “DEDEELMRRVVEIYIRALHTGDEDWMTHLADPHVKVDLLIDGRETELHGREWVVEIARKLGVKHSEVKDVHLVGDYIVIHLHLRIGDKEEEQDLIFLKVDGKWTLESSTIRRI” reads 1.53. In the case of “DEDEELRRRRSEIVRKDWETGDWKSIEELADPHVKNHIGEYLAVGRENLVFVLEHFLKVLGVKHREIHSSELHIVNGRAEVHIDTRLVVNGRNIKTHVRFIFDKVNGRWVMHSVEFHVD” it was 1.25; in that of “DEDEELSERATREFIENWKTGNFDDLMKLLDPNVKLDVGDKRHHGRERMVRSMVEILKHLGANVIDIHDTDVYDGRIDIHLRLEAENHHSILTIHIEKINGRWLIRSMEIK”, 1.26.

“DEDEELSERVTREWLHAILTGDEDWLRRYVDPHVRVHINVDGKDRTVHGMDFLIEHLRRVPNVRFIIKHMEVETQGEKVIIRVNVRIRVGDKEHETEIILIVLKVDGRWIATSIFIHIR” returned a protease stability score of 0.231. In the case of “DEDEELTRQIIEHIERNIETGDERRYRELVDPNARVDYNGVDKHGMHAILEVWNHIQHEFRGATIEHSRVRDWRFQGDKVILNFEHYFRIGDKNWRLDTRIIVDKVDGRWVIREVQIR” it was 1.47.

The sequence “DEDEELVETHIRHEIRSAKTGDEESLHRLLDPNTRIEIGDKVFVGRETFTKWLRKLLHDAGVSKFEVHVRDMEIQGEKLILDGEWHINGVTIRTRIIVHKVNGRWHNKHMQME” showed a protease stability score of 0.582.

For “DEDEELVKEWFEILMHKVITGDEDTLRNLADPNVRVDINGRDHHGREKFIEVYRRLWEDFGIDYIDSDVEEMKVYDGQAEVTIRLEIRFNGRTLELTTHYDVEKVDGKWRLRRHEVR”, the protease stability score is 1.29. In the case of “DEDEELVKKFFKEHSESNRTGDWHTIMKQADPNARIFINGVILHGRELFTEHMMRMVRRADHFHFHLEDMRVINGRAELDVHVHLNINGKIDNVETHFIVIKINGRWRLEESRFH” it was 0.661; in that of “DEDEELVRHAYEDWLHTVRTGDEHTLNKLFDPHVRMHYDGVESHGWRIAHHFHRRFKNMQVRIDDEHIEVYGEFARVESKITLDVGEYKIDLTLIVIMIKVNGRWKIHSVRIEKR”, 1.17. For “DEDEELYEKFTRDLNHSLMTGDEEVMRELADPHVKVDFNGRELHGWEAVTFLLRVMGIDHLELKDIRLQGDKARNYTILRFNGRTSTLIVVLHKVNGKWIIESFEYR”, the protease stability score is 1.07. The result for “DEDEEMAHWAMEVLTKLIRTGDEDTILDMIDPHARIVYGDKTHHGREHFEKIIHELGVKVFEVHEIENQGEKVTIHGRQHVNGRTYDVKLFVQKVNGRWYIKRVHIK” reads 1.42; that for “DEDEEMFHRAVRLLLEHSRTGDEELTTKMADPHVKVDINGRDLIGRESYSRWWSEKAEQMRIDFRFRRVEVFDGVIFIDFKLIVDVNGRRLEFELHILILKIDGRWIIKEVHVK”, 0.68. In turn, “DEDEEMMEHLIRILVEVLKTGDWKELLKLADPHVRQDVNGVDIHGREDVSRRLANQAKELRLELHLQDVKVWNGRVDFDSRLHINQGEKYVQLHVRIITEKIDGRWRITEIHVR” had a protease stability score of 1.62. The result for “DEDEEMSERLSRIIVKALRTGNEHVLRRLVDPDVLSSIDGRKHHGWEDWHEFLKRLGHENVDVQLEHLRFQGNKIELDMILRVGDKTHTQHIHILKVDGRWTMHEVRIK” reads 1.42.

The sequence “DEDEEMSKLLLEVSERVIETGDEHLWTRLLDPNVRIHLIIGDKTIELIGRERAHELLHHILERYKNATLRLRSVEIQGDKVIVESELNVGDKRIKQIYIWTKINGQWVLEEVNIEVR” showed a protease stability score of 1.44. The result for “DEDEEMSRIALNLFIHAMDTGDEHTLTHLMDPNVQLQINGREIIGREEVIRFVRELGVKHVKSHRLRDMELQGDKIIIDAEVEESQGDKEHHFRHTIVFRKVNGRWIIQSIKIK” reads 2.13. In the case of “DEDEEMVEKALELMAETHETGDEDTLHDFFDPHTRMELQIGDKTIRDHGRHAMHWLLRILGINHIEIHHRTVRLINGRIHLHINGSINVNGQEIESRIHIYSEKIDGRWRVTRLEYRFH” it was 1.31; in that of “DEDEENAKMFTELLWRVLLTGDEELFKEMADPHVRVIFDGREIHGRDDIAHWITEMRFEINILRINDVRLVGDYIKIDGTMERQGEINGKRIRSSHRIIIFVRKINGKWHLEQLHFS”, 2.26.

In turn, “DEDEENARKVSKKYKEIVLTGDEHALERLIDPNVRIDFNGKEFHGREDLSRLFHERFKRADHIEFDVKHINVQGNKVDLDVREIEIVGDKTHVHNVILHVLKIDGRWLIKEIRVH” showed a protease stability score of 1.26. In the case of “DEDEENARRFIHELSRILETGDEERLDEMADPDVRIIIGEKHLHGREEFRKWMRHLLKRVKNMQIEVQLTSSEIVGEWVNLDTTLIIRVGDKHYEHRTVVIVLKIDGRWFLHQIHFK” it was 1.79; in that of “DEDEENFERLVHLTLHYLLTGDFEDFNHLADPHVKLNVNGQQHVGREKWSELLHLFGINHMQIEERDLRVIGDKVRLDVRGTSQVGDKEHEVHIHIHAQKVNGRWTVTEMQINTE”, 2.1. In the case of “DEDEENIRKEVEIFKHLLETGNEQEMSKLADPNTRFYYGDKTIHGREEMIKFLHEEWRHLGVKHNEYRVKEMRSINGRAIIHGELIWKSENEIIHRDVLIIARKVDGKWVSESVHVH” it was 1.23. On to “DEDEENTRKLLESYIRVFRTGDEDRMIELADPDVRLKIDGVTRHGREDWMRHWLNLVERMGANVSELTRFDVFDGQVHSHHKLVQGDKERKMHLILIKVDGRWFLHEISEQ”, for which the protease stability score amounted to 0.157.

In turn, “DEDEENTRQAIDRIIRSWMTGDEKTMTELLDPRVRVEQGDKEFHGREDYTRWINEMRITHIDLRSIEKIDGRLHVHLEFDESVNGKRHRVDVELTIVKINGQWFLESVRIR” registered a protease stability score of 0.681. In turn, “DEDEEQAEKMIKIWIHDMATGNEESLVRLADPRVRSEVDGVQLHGRESLRKFLHDEWRDLGVDRIQVHVRRYHVFDGRLHLDGEVIVNGQDKTMHIVLIKVDGRWHLKSVHFR” yielded a protease stability score of 2.14. “DEDEEQAERAIRIYTEVLNTGNEEESERMADPHVRIIVNGVILHGREMFYQYVHEWRVDIRVILRHVKVFEGWVDVEGEFNSHLEVNGRHENNRSKVRLHILKVNGVWLIHEVRVH” displayed a protease stability score of 1.5. The result for “DEDEEQARRLAELIRHLLITGDEYVNRKMADPRVQFILHQGDKNYLHHGRDEVVRRLRELWEEWGFDQIHVNLDDVKIVNGRVIIHTRLQVGDKHMELRFIIEKIDGKWLVTHEQIHLH” reads 1.62; that for “DEDEEQLHEMVRIFLENMQTGNFEALLNYMDPNAKRRDVQGDKDITYIGREQAKEHDEKLDRHLGVKHFEIKRITIQGEKADIDTRLLFNGQLRDVRIHIIIVNGKLSYLEVQID”, 0.897.

Take “DEDEEQLKEMWREFLEASRTGDEHRIKELADPNARLRQGDKRFHGREEFSRLIVEMRIRHIEIRRIRVVGDKIEITTELHVIYNGQHIEVDTHVIILKVNGRWSLTEMEER”: the protease stability score turned out to be 0.905.

Take “DEDEEQLRKWTRLTWRDMITGNEDSLHRLFDPHTRLDIDGVDVHGMESVSRKISDEMKRFDHVDFHLHDMRIFNGRAHIDGRLRFHINGVHLERREVIVILKINGQWFNEQISYK”: the protease stability score was 0.196. The result for “DEDEEQTRRAWKINLEQWLTGDEELLDRNLDPDVRNDVNGVRLHGMELLTEMLHRFIEKLKGATIRLKDFRLRFYGNKIEVRVETIVHVNGVQIHVELIFIATKVDGRWRIHEISHHNR” reads 0.868; that for “DEDEERAKKLAEDTLHSWRTGNEEHMIKLADPNVRVEWNGKDFVGREEFKRSVHKMLRDLGVDNIEVRLDHIEVDEDHAIVYGEVIYNGRISQIEWVFRKVNGRWYLHRMHIRDR”, 1.54. Consider “DEDEERAQEMAKRLEDSLHTGDEETHQNLMDPHMRLRVNGKEFHGRENILHFLREWRIHHLDVRLRHIDDRGEYIIINSEVRVDGNIDGKRTELHTISEIILVKVDGRWMTDEFRFH”, for which the protease stability score was determined as 0.72.

In turn, “DEDEERARHHLEEIIKTIHTGDENLYEKLVDPNAWMDINGRELHGREEVVKYWSHEAHRFGIDVIRLRHEERVGNYVHSDTDLEVNGKTIKTRLVMLKINGKWVIQSFEMH” came in with a protease stability score of 0.75. In the case of “DEDEEREKVYHELHLHNLLTGNEEILANLVDPHVLSIVNGKELHGMDEVRKLWQELGWTWHDIHIHDEKRIGNKVHIDVRLNGNINGRTMIVRAKITITKINGRWYVSHIEII” it was 0.718; in that of “DEDEERIREVVERFLRDWETGDEKSLKHLLDPNVRMIIDGVDIVGREEALRLMKKLVDDLGIKHVHFHRVRLDVQGDKVRSEVDGEFEVGDKHTKVHTLLILRKVDGKWIFESVHMDHK”, 2.27.

Consider “DEDEERKHKILEIWLHSLETGDETKLEEMVDPNVRIEFNGREHHGWEHFLEFVRVFGAKVLHLEDEREDGNKIIHHIVVHVNGRRHTLIVIAHKVNGRWVISSIRFE”, for which the protease stability score worked out at 1.45. In the case of “DEDEERMEHMIHLLDHALETGDWRTISKLIDPHVRLEVNGVNFVGREEIITFLLEIRMSSRIHIKDFRVVGDKLEMEIDSHIDLHYNGKTYQTRVESRLIIKKVNGRWILQESSER” it was 1.15; in that of “DEDEERMHWMVEVLLRMLETGNEEIVKRLVDPNARVHTEDHSSMGREEFSRFMLELAKRFDVFHDVELKHVEVQGEKIILDGKFHIEVNGRRNYLDIELIIIKIDGRWKIEEVRFH”, 1.25. In the case of “DEDEERNEHFLRLYEKITTTGDEDIAKELIDPNARLHVNGKDIHGRESVVKWLKELRIHHLKLRHFRIVGEKAENDISYDVEVDGRTNRRDVHIYLLKIDGRWVIHSIEVR” it was 1.84; in that of “DEDEERSERLLHMVIELLLTGDEEKWNNLLDPHARVEIDGQERHGRHIVTHFLTRFKNVRMHIHDVKVYGEKVDITTEITFNGKHINVHIELVFVNGKMTSVRFEWHRH”, 2.02; in that of “DEDEERVKLASELYTHIMHTGDERLTKEFFDPRVRSDINGRELHGREIITEMVSRYKNMTLHSHREEVQGEWAFIDGRMEYGDKEWKIHIITLKVNGRWVVTEIEFH”, 0.778. The result for “DEDEERVREFFELFFKALFTGDEEELKRLLDPHVKLIINGREFVGREQMTRLLNEIRVSWTELRIRRIERQGDKVIFDAEVHVERHQGDYHEQKTIKVILYMRKVDGRWLLESIEIR” reads 2.38; that for “DEDEESATKFTRELIHHTRTGDEESLKELADPNVRIDFNGVEIHGMEWWLKLHVHLGAKIILRLKDIETIGDKVHIHGEREIRVNGKNIRTKIRILVEKVDGRWVLKHEELG”, 1.21; that for “DEDEESLRRMTTLLLYLWLTGDFEEMQKLADPRVKLDAENRNVHGREEWYEFMKRLGVKHSEVHHLRVINGRIDVETRVDVDGQEVRIRFIIDKVDGRWFLRRVYVH”, 1.85.

“DEDEESNKLFEDLLSEAIRTGDWRMLRHLADPNVRVDINGKKLVGWEELMRFMHELRIDRHHSRIHDSDSQGDKMHIDVRLEIDGNINGRKHRFRIESELILVKVNGRWLLEESRVG” gave a protease stability score of 1.67.

The values are drawn from the NTF2 design screens of Basanta et al. (2020).
